Data set [1] has as its target T1, human beta2-microglobulin (hβ2m), monomer (human, UniProt P61769 21-119). Nature of the data set: intrinsic Trp fluorescence quenching; EC50; Hill slope 0.99 ± 0.06; 1 uM protein; 50 mM MES, 120 mM NaCl, pH 6.2; fluorescence and NMR at 25 °C (NMR plus 0.02% azide, 0.1 mM EDTA, 10% D2O); SPR temperature not stated. To be noted: tags: biotin (N terminus, Lys-7 and/or Lys-92), immobilized, for SPR; hairpin with bulges, U tetraloop.

Data set [2] deals with T1, human beta2-microglobulin (hβ2m), …. The data set can be described thus: intrinsic Trp fluorescence quenching; 1 uM protein; 50 mM MES, 120 mM NaCl, pH 6.2; fluorescence and NMR at 25 °C (NMR plus 0.02% azide, 0.1 mM EDTA, 10% D2O); SPR temperature not stated. To be noted: tags: biotin (N terminus, Lys-7 and/or Lys-92), immobilized, for SPR; hairpin with bulges, U tetraloop.

T1 sequence (P61769 21-119): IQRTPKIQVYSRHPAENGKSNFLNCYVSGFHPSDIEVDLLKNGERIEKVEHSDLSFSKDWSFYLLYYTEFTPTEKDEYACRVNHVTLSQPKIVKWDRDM

For the molecule GGGAAUUCUGAGCUACUCCCUUUUGGGCCCGGCUAUGAUUCCCG (XNA, 2'-fluoro C and U (3'-terminal G is ribo)) [2'F B6min], the “apparent K (half saturation)” value in data set [1] turned out to be 223 ± 10 nM. As for GGGAAUUCUGAGCUACUCCCUUUUGGGCCCGGCUAUGAUUCCCG (structured_RNA, none (2'OH)) [2'OH B6min], in data set [2], the binding result is reported as “no binding”.

The values above are taken from paper PMC4175327, “Distinguishing Closely Related Amyloid Precursors Using an RNA Aptamer*”.
